We go through 1 molecule from patent US20150344570A1 (published 2015).

Where a chain is given by its changes, count along the chain named.

Holding throughout (assay): SPR (Biacore); KD of IL6R-B3/IL6R-L divided by KD of the sample
For orientation: SPR reads the build-up and loss of mass on a sensor chip optically.

In one assay the target is T1, FcgRIIaR (human, UniProt P12318 34-217).
T1 construct: extracellular domain; Allotype R131; also called FcγRIIa R; FcgRIIa type R; not shown: His tag attached to the C terminus
T1 sequence (looked up): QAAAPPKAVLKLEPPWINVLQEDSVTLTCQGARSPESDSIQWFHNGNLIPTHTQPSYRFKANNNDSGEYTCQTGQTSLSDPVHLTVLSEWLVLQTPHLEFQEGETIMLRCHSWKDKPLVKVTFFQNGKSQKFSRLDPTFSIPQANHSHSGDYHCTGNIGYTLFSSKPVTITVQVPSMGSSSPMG

A further assay deals with T2, FcgRIIaH (human, UniProt P12318 34-217).
T2 construct: extracellular domain; Allotype H131; also called FcγRIIa H; FcgRIIa type H; not shown: His tag attached to the C terminus
T2 sequence (looked up): T1 sequence (looked up) with R134H

A further assay deals with T3, FcgRIIb (human, UniProt P31994 43-217).
T3 construct: extracellular domain; also called FcγRIIb; CD32B; not shown: His tag attached to the C terminus
T3 sequence (looked up): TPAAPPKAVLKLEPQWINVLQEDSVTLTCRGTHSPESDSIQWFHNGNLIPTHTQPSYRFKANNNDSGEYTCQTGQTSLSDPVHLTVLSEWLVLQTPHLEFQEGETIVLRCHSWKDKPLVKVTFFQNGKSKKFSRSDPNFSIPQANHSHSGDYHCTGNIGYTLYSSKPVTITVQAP

B1: IL6R-BP253/IL6R-L (antibody, human IgG1, kappa)
heavy: QVQLQESGPGLVKPSETLSLTCAVSGHSISHDHAWSWVRQPPGEGLEWIGFISYSGITNYNPSLQGRVTISRDNSKNTLYLQMNSLRAEDTAVYYCARSLARTTAMDYWGEGTLVTVSSASTKGPSVFPLAPSSKSTSGGTAALGCLVKDYFPEPVTVSWNSGALTSGVHTFPAVLQSSGLYSLSSVVTVPSSSLGTQTYICNVNHKPSNTKVDKKVEPKSCDKTHTCPPCPAPELLGGPSVFLFPPKPKDTLMISRTPEVTCVVVDVEHEDPEVKFNWYVDGVEVHNAKTKPREEQYNSTYRVVSVLTVLHQDWLNGKEYKCKVSNKAFPAPIEKTISKAKGQPREPQVYTLPPSRDELTKNQVSLTCLVKGFYPSDIAVEWESNGQPENNYKTTPPVLDSDGSFFLYSKLTVDKSRWQQGNVFSCSVMHEALHNHYTQESLSLSP
light: not shown
notes: Homodimer
Regarding B1, the entries for the “relative KD” value with FcgRIIaR, with FcgRIIaH and with FcgRIIb were 480, 0.9 and 349, respectively.
